Where “and” joins values, the source holds several entries; their conditions need not be identical. Equal entries are not always repeated.
Target: the molecule itself
Experiment: native gel or EMSA

B1: PPE64 mycomembrane channel protein (recombinant, detergent-refolded) (natural protein)
chain: MAHFSVLPPEINSLRMYLGAGSAPMLQAAAAWDGLAAELGTAASSFSSVTTGLTGQAWQGPASAAMAAAAAPYAGFLTTASAQAQLAAGQAKAVASVFEAAKAAIVPPAAVAANREAFLALIRSNWLGLNAPWIAAVESLYEEYWAADVAAMTGYHAGASQAAAQLPLPAGLQQFLNTLPNLGIGNQGNANLGGGNTGSGNIGNGNKGSSNLGGGNIGNNNIGSGNRGSDNFGAGNVGTGNIGFGNQGPIDVNLLATPGQNNVGLGNIGNNNMGFGNTGDANTGGGNTGNGNIGGGNTGNNNFGFGNTGNNNIGIGLTGNNQMGINLAGLLNSGSGNIGIGNSGTNNIGLFNSGSGNIGVFNTGANTLVPGDLNNLGVGNSGNANIGFGNAGVLNTGFGNASILNTGLGNAGELNTGFGNAGFVNTGFDNSGNVNTGNGNSGNINTGSWNAGNVNTGFGIITDSGLTNSGFGNTGTDVSGFFNTPTGPLAVDVSGFFNTASGGTVINGQTSGIGNIGVPGTLFGSVRSGLNTGLFNMGTAISGLFNLRQLLG
notes: also called PPE64_(OPOE); PPE64DDM
stoichiometry N: 9 and 3

From paper PMC12802285, “PPE64 is a mycomembrane channel protein that functions in heme iron uptake and moonlights in biofilm formation in Mycobacterium tuberculosis” (mBio, 2025)
